T1: AP2-G D1 (Plasmodium falciparum, UniProt Q8I5I9 2123-2245)
T1 sequence: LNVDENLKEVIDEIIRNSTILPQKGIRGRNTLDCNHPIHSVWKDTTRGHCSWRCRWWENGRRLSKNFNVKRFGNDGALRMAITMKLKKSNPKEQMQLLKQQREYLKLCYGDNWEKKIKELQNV

B1: XGTACX_negctrl_site364 (dsDNA)
DNA 1: ATAAAATATTAGACATTTATTAATATTACACATATC
DNA 2: GATATGTGTAATATTAATAAATGTCTAATATTTTAT
B2: XGTACX_negctrl_site308 (dsDNA)
DNA 1: TACATAATTTAAAATTTTATAAGTTGTAATTCGTTT
DNA 2: AAACGAATTACAACTTATAAAATTTTAAATTATGTA
B3: XGTACX_negctrl_site355 (dsDNA)
DNA 1: AAAGGGGAAAATATTATACATATAATAAATCCGTAT
DNA 2: ATACGGATTTATTATATGTATAATATTTTCCCCTTT
B4: XGTACX_negctrl_site42 (dsDNA)
DNA 1: AATGAATAACAATACTATATGATTTTTAATACATTA
DNA 2: TAATGTATTAAAAATCATATAGTATTGTTATTCATT
B5: XGTACX_negctrl_site85 (dsDNA)
DNA 1: TACATATTTTGTATATATTATTTATTTTATTAGTTT
DNA 2: AAACTAATAAAATAAATAATATATACAAAATATGTA
B6: XGTACX_negctrl_site513 (dsDNA)
DNA 1: GAAAAAAAAAAAAAAAGAAAATTCATATTTTTAATA
DNA 2: TATTAAAAATATGAATTTTCTTTTTTTTTTTTTTTC
B7: XGTACX_negctrl_site207 (dsDNA)
DNA 1: TTTTTATTTAATATTTTAAAAAAAAATCATTTTTAA
DNA 2: TTAAAAATGATTTTTTTTTAAAATATTAAATAAAAA
B8: XGTACX_negctrl_site314 (dsDNA)
DNA 1: TAATTTATAAGGTATAACAACAATTGCATCTATCAC
DNA 2: GTGATAGATGCAATTGTTGTTATACCTTATAAATTA
B9: XGTACX_negctrl_site340 (dsDNA)
DNA 1: AAAAAATAAATAAACATAAATAAATAAATAAATATA
DNA 2: TATATTTATTTATTTATTTATGTTTATTTATTTTTT
B10: XGTACX_negctrl_site367 (dsDNA)
DNA 1: ATAAAATGATGTATCTGTGTATGTTTATTTTGTTTT
DNA 2: AAAACAAAATAAACATACACAGATACATCATTTTAT
B11: XGTACX_negctrl_site87 (dsDNA)
DNA 1: GCATATTTTCCCTGTGAATAAAGTTTTTTTTTTTAT
DNA 2: ATAAAAAAAAAAACTTTATTCACAGGGAAAATATGC
B12: XGTACX_negctrl_site612 (dsDNA)
DNA 1: TAAACATTTTTAATTTTGTAAAATTTTAAATAAAAA
DNA 2: TTTTTATTTAAAATTTTACAAAATTAAAAATGTTTA
B13: XGTACX_negctrl_site278 (dsDNA)
DNA 1: TAATATTTCTTATTTTATATTTGTATATGAATGGAT
DNA 2: ATCCATTCATATACAAATATAAAATAAGAAATATTA
B14: XGTACX_negctrl_site72 (dsDNA)
DNA 1: CTTTCAAAATTATTTATAGTATCTCATATTTTAGTA
DNA 2: TACTAAAATATGAGATACTATAAATAATTTTGAAAG
B15: XGTACX_negctrl_site407 (dsDNA)
DNA 1: AATATATATATAAATAATATACCTATATATTTTTTG
DNA 2: CAAAAAATATATAGGTATATTATTTATATATATATT
B16: XGTACX_negctrl_site482 (dsDNA)
DNA 1: AGAAAAAACAAAAGAGAAATGAAAAAAAAAAAAAAA
DNA 2: TTTTTTTTTTTTTTTCATTTCTCTTTTGTTTTTTCT
B17: XGTACX_negctrl_site357 (dsDNA)
DNA 1: ATAATTATATAAATATATATAATATATATATGAAAA
DNA 2: TTTTCATATATATATTATATATATTTATATAATTAT
B18: XGTACX_negctrl_site221 (dsDNA)
DNA 1: TATTTTATAAATACAAGTAAAATTAAATATATAATA
DNA 2: TATTATATATTTAATTTTACTTGTATTTATAAAATA
B19: XGTACX_negctrl_site318 (dsDNA)
DNA 1: GAAAAAAGGAAATAAAGAAAAAAAAAAATGAAATAT
DNA 2: ATATTTCATTTTTTTTTTTCTTTATTTCCTTTTTTC
B20: XGTACX_negctrl_site418 (dsDNA)
DNA 1: TTTTTTTTTTTTTTTTCTTTTTTTTTTTTAAATAAG
DNA 2: CTTATTTAAAAAAAAAAAAGAAAAAAAAAAAAAAAA
B21: XGTACX_negctrl_site298 (dsDNA)
DNA 1: AGTTTTTATTAAAACAAAATTTAATTATAACGTTGA
DNA 2: TCAACGTTATAATTAAATTTTGTTTTAATAAAAACT
B22: XGTACX_negctrl_site427 (dsDNA)
DNA 1: TTCTATATTTTAGCTGATAATATTATGAGCTTCACT
DNA 2: AGTGAAGCTCATAATATTATCAGCTAAAATATAGAA
B23: XGTACX_negctrl_site240 (dsDNA)
DNA 1: TTTTTTATAAAATTTTTTTTTTAAAATATTAAAACT
DNA 2: AGTTTTAATATTTTAAAAAAAAAATTTTATAAAAAA
B24: XGTACX_negctrl_site47 (dsDNA)
DNA 1: ATATATATATAATTATATAAAATATATCATATGTTA
DNA 2: TAACATATGATATATTTTATATAATTATATATATAT
B25: XGTACX_negctrl_site76 (dsDNA)
DNA 1: TTATTATTTATTTTTTATTATTATTATTTTTTTTTA
DNA 2: TAAAAAAAAATAATAATAATAAAAAATAAATAATAA
B26: XGTACX_negctrl_site466 (dsDNA)
DNA 1: TTTATATTTATATAAATATAATATATATGAATTATA
DNA 2: TATAATTCATATATATTATATTTATATAAATATAAA
B27: XGTACX_negctrl_site143 (dsDNA)
DNA 1: TATTTCGTAATTTAATAATATACAAGAAATATATAT
DNA 2: ATATATATTTCTTGTATATTATTAAATTACGAAATA
B28: XGTACX_negctrl_site587 (dsDNA)
DNA 1: TATGAAAAAAAAAAAAAAAAAAAAAAAAAAAAAAAA
DNA 2: TTTTTTTTTTTTTTTTTTTTTTTTTTTTTTTTCATA
B29: XGTACX_negctrl_site452 (dsDNA)
DNA 1: TATCTCTACAAAATTTTATTCATTATTCATGTTATA
DNA 2: TATAACATGAATAATGAATAAAATTTTGTAGAGATA
B30: XGTACX_negctrl_site60 (dsDNA)
DNA 1: TACAGTTTTTCTTTGAATTTATCAAGTTTTTTTCCC
DNA 2: GGGAAAAAAACTTGATAAATTCAAAGAAAAACTGTA
B31: XGTACX_negctrl_site1 (dsDNA)
DNA 1: TACAAACAAACACATAGCAATATATGTTATCAAAAA
DNA 2: TTTTTGATAACATATATTGCTATGTGTTTGTTTGTA
B32: XGTACX_negctrl_site479 (dsDNA)
DNA 1: AATCAATTAATATTAGCATAAAATTTTATTATTTTG
DNA 2: CAAAATAATAAAATTTTATGCTAATATTAATTGATT
B33: XGTACX_negctrl_site55 (dsDNA)
DNA 1: ATGGAATATTTCATGATTTTTTTAATTTTTTTATTG
DNA 2: CAATAAAAAAATTAAAAAAATCATGAAATATTCCAT
B34: XGTACX_negctrl_site528 (dsDNA)
DNA 1: TTTTATCAAATATTTATTTTATACATAAATATTTAT
DNA 2: ATAAATATTTATGTATAAAATAAATATTTGATAAAA
B35: XGTACX_negctrl_site148 (dsDNA)
DNA 1: TTAAAACATATTTTGAATTAATATATTTTAATATTA
DNA 2: TAATATTAAAATATATTAATTCAAAATATGTTTTAA
B36: XGTACX_negctrl_site159 (dsDNA)
DNA 1: TACAAAAAGAATGAAAAATATATAATAAAAATAAAA
DNA 2: TTTTATTTTTATTATATATTTTTCATTCTTTTTGTA
B37: XGTACX_negctrl_site420 (dsDNA)
DNA 1: AAAAAATAGAATATAAAAATAAAGGAATTAAATTAA
DNA 2: TTAATTTAATTCCTTTATTTTTATATTCTATTTTTT
B38: XGTACX_negctrl_site599 (dsDNA)
DNA 1: TTTTTGTAAACCTACTTCATAATTATTTATATCTAT
DNA 2: ATAGATATAAATAATTATGAAGTAGGTTTACAAAAA
B39: XGTACX_negctrl_site400 (dsDNA)
DNA 1: AATAATGAAACAGGAAAAAAATATTGTTAAAATGTA
DNA 2: TACATTTTAACAATATTTTTTTCCTGTTTCATTATT
B40: XGTACX_negctrl_site118 (dsDNA)
DNA 1: AAGGTATACACTGCTTTATCAAGTTTAACTCTTTTT
DNA 2: AAAAAGAGTTAAACTTGATAAAGCAGTGTATACCTT
B41: XGTACX_negctrl_site67 (dsDNA)
DNA 1: AACAAATAAAGCTATGACATGTTAAAATTGTTTCAC
DNA 2: GTGAAACAATTTTAACATGTCATAGCTTTATTTGTT
B42: XGTACX_negctrl_site307 (dsDNA)
DNA 1: CTTTATCTTCTCACGAAGATTGAATAAGGTATTCTT
DNA 2: AAGAATACCTTATTCAATCTTCGTGAGAAGATAAAG
B43: XGTACX_negctrl_site539 (dsDNA)
DNA 1: TAAGGATAAATAAAATGAAATGAAATAAATAAATGA
DNA 2: TCATTTATTTATTTCATTTCATTTTATTTATCCTTA

The binders below were run against T1, AP2-G D1 (assay: gcPBM; about 25 ug protein; PBS, 1% milk, 0.2 mg/ml BSA, salmon testes DNA, 0.03% Triton X-100). Conditions: tags: N-terminal GST (pGEX-4T-1), kept; label: surface-attached array probe.

Binder | binding signal
B1 | 9.58 ln median PBM intensity, better of two orientations
B2 | 9.65 ln median PBM intensity, better of two orientations
B3 | 9.67 ln median PBM intensity, better of two orientations
B4 | 9.52 ln median PBM intensity, better of two orientations
B5 | 9.55 ln median PBM intensity, better of two orientations
B6 | 9.66 ln median PBM intensity, better of two orientations
B7 | 9.53 ln median PBM intensity, better of two orientations
B8 | 9.69 ln median PBM intensity, better of two orientations
B9 | 9.52 ln median PBM intensity, better of two orientations
B10 | 9.53 ln median PBM intensity, better of two orientations
B11 | 9.67 ln median PBM intensity, better of two orientations
B12 | 9.56 ln median PBM intensity, better of two orientations
B13 | 9.65 ln median PBM intensity, better of two orientations
B14 | 9.65 ln median PBM intensity, better of two orientations
B15 | 9.52 ln median PBM intensity, better of two orientations
B16 | 9.54 ln median PBM intensity, better of two orientations
B17 | 9.61 ln median PBM intensity, better of two orientations
B18 | 9.64 ln median PBM intensity, better of two orientations
B19 | 9.53 ln median PBM intensity, better of two orientations
B20 | 9.64 ln median PBM intensity, better of two orientations
B21 | 9.58 ln median PBM intensity, better of two orientations
B22 | 9.67 ln median PBM intensity, better of two orientations

Binder | binding signal
B23 | 9.66 ln median PBM intensity, better of two orientations
B24 | 9.64 ln median PBM intensity, better of two orientations
B25 | 9.62 ln median PBM intensity, better of two orientations
B26 | 9.51 ln median PBM intensity, better of two orientations
B27 | 9.58 ln median PBM intensity, better of two orientations
B28 | 9.69 ln median PBM intensity, better of two orientations
B29 | 9.53 ln median PBM intensity, better of two orientations
B30 | 9.65 ln median PBM intensity, better of two orientations
B31 | 9.63 ln median PBM intensity, better of two orientations
B32 | 9.57 ln median PBM intensity, better of two orientations
B33 | 9.52 ln median PBM intensity, better of two orientations
B34 | 9.58 ln median PBM intensity, better of two orientations
B35 | 9.55 ln median PBM intensity, better of two orientations
B36 | 9.63 ln median PBM intensity, better of two orientations
B37 | 9.64 ln median PBM intensity, better of two orientations
B38 | 9.69 ln median PBM intensity, better of two orientations
B39 | 9.6 ln median PBM intensity, better of two orientations
B40 | 9.62 ln median PBM intensity, better of two orientations
B41 | 9.59 ln median PBM intensity, better of two orientations
B42 | 9.6 ln median PBM intensity, better of two orientations
B43 | 9.56 ln median PBM intensity, better of two orientations
